This note sets out measurements from article PMC6327479.

This data set concerns T1, HicB-6His (Sinorhizobium meliloti), ORF:5e3b9e2c.
T1 sequence: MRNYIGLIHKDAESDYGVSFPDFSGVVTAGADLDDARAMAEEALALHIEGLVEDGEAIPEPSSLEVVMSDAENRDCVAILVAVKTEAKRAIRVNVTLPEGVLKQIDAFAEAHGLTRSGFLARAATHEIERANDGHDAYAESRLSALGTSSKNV
Nature of the data set: EMSA. The settings on record: EMSA: 10 mM Tris-HCl pH 7.5, 50 mM NaCl, 1 mM DTT, 300 ug/ml BSA, 20 ul, 30 min at 25 C; 5% native PAGE in TAE pH 7.5.

As to “GATCCGACGGTTCGAGACCATCCGAGAAAGCCGCCTTAGATTGGCTTGACAAATTCATTGGACGAATACACATGCGTGTGTATTGTCGTATCAGATGAAGAGCGGCGACATTATTGCAGCATTGCAGAAGGACGGATGGTACGAGGTTGCGACCAAGGGCAGCCACGTTCAATTCAAACATCCGAAAAAGCACGGCCGGGTTACCGTTCCTCACCCGAAGA (double strand) [hicAB promoter fragment]”, the binding result is “binds”.
